Experimental data as given in patent US20250136688A1 (Janssen / Centocor, published 2025).

How the values were obtained:
human GUCY2C [1] = molecular target: T1, human GUCY2C (human, UniProt P25092 24-1073); test: cell-based or functional assay
cynomolgus monkey CD3 = molecular target: T2, cynomolgus monkey CD3 (cynomolgus monkey, UniProt Q95LI5 22-198); test: not described
T2 construct: whole, on cells; also called cyno CD3; NHP CD3

Human CD3 epsilon = molecular target: T3, Human CD3 epsilon (human, UniProt P07766 23-207); test: flow cytometry on primary T cells, 1 hour at 37 °C
T3 construct: Stood on human T cells (pan-T cells, isolated donor T cells) as part of the TCR/CD3 complex; the other chains of the complex are not written here; also called CD3ε; CD3R
T3 sequence (P07766 23-207 limits assumed): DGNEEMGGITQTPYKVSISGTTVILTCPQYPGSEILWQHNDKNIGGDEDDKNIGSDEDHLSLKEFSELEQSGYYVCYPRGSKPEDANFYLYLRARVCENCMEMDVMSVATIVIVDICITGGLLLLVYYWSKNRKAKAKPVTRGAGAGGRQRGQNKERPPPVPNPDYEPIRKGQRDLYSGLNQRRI

human GUCY2C [2] = molecular target: T1, human GUCY2C; test: flow cytometry on T84 cells, 1 hour at 37 °C

T1 sequence (P25092 24-1073): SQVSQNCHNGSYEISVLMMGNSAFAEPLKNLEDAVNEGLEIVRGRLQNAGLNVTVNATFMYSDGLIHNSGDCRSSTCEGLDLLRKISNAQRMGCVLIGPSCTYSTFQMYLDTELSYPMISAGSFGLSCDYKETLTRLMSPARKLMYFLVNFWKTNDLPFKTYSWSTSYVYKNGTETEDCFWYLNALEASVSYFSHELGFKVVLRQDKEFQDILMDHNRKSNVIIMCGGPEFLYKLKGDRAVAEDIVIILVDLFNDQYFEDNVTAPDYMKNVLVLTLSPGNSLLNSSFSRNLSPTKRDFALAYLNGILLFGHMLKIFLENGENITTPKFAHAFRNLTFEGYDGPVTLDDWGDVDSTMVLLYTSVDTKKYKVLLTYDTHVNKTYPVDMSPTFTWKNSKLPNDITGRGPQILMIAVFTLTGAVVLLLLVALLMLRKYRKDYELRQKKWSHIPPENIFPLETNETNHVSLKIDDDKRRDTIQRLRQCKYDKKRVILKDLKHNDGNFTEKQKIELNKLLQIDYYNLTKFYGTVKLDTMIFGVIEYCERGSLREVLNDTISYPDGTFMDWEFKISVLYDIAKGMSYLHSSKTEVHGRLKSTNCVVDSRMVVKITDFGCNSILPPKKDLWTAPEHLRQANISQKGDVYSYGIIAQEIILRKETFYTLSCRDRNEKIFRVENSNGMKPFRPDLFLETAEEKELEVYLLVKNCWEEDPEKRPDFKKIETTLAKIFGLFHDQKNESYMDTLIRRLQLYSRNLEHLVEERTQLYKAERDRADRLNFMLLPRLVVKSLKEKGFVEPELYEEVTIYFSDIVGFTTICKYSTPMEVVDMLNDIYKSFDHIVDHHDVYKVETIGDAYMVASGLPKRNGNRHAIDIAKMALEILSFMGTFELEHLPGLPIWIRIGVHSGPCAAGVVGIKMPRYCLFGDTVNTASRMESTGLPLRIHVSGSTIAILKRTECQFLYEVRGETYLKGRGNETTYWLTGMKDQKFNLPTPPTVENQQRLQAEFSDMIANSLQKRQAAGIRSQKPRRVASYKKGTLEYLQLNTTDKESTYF
T2 sequence (Q95LI5 22-198): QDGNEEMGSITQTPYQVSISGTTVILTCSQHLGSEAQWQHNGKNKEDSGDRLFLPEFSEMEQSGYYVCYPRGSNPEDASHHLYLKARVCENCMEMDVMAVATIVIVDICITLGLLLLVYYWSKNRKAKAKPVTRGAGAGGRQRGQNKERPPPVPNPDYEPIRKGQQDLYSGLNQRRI

binding result (cynomolgus monkey CD3): no binding
EC50 (Human CD3 epsilon): 108 nM
EC50 (human GUCY2C [2]): 12 nM
B1: GUCY2C×CD3_biAb-1 (bispecific antibody, human IgG1, kappa, L234A L235A)
heavy: QVQLQESGPGLVKPSETLSLTCTVSGASISHYYWSWIRRPAGKGLEWIGRIYTSGSTNYNPSLKSRVTVSVDTSKNQFSLKLSSVTAADTAVYYCARDRYTGYFDLWGRGTLVTVSSASTKGPSVFPLAPSSKSTSGGTAALGCLVKDYFPEPVTVSWNSGALTSGVHTFPAVLQSSGLYSLSSVVTVPSSSLGTQTYICNVNHKPSNTKVDKKVEPKSCDKTHTCPPCPAPEAAGGPSVFLFPPKPKDTLMISRTPEVTCVVVSVSHEDPEVKFNWYVDGVEVHNAKTKPREEQYNSTYRVVSVLTVLHQDWLNGKEYKCKVSNKALPAPIEKTISKAKGQPREPQVYTLPPSREEMTKNQVSLSCAVKGFYPSDIAVEWESNGQPENNYKTTPPVLDSDGSFFLVSKLTVDKSRWQQGNVFSCSVMHEALHNRFTQKSLSLSPGK
light: not shown
chain: EIVLTQSPATLSASPGERVTLSCSASSSVSYMNWYQQKPGCAPRRWIYDSSKLASGVPARFSGSGSGRDYTLTISSLEPEDFAVYYCQQWSRNPPTFGGGTKVEIKGGGSGGSGGCPPCGGSGGQVQLVQSGAEVKKPGSSVKVSCKASGYTFTRSTMHWVKQAPGQGLEWIGYINPSSAYTNYNQKFQGRVTLTADKSTSTAYMELSSLRSEDTAVYYCASPQVHYDYAGFPYWGCGTLVTVSSEPKSSDKTHTCPPCPAPEAAGGPSVFLFPPKPKDTLMISRTPEVTCVVVSVSHEDPEVKFNWYVDGVEVHNAKTKPREEQYNSTYRVVSVLTVLHQDWLNGKEYKCKVSNKALPAPIEKTISKAKGQPREPQVYTLPPSREEMTKNQVSLWCLVKGFYPSDIAVEWESNGQPENNYKTTPPVLDSDGSFFLYSKLTVDKSRWQQGNVFSCSVMHEALHNHYTQKSLSLSPGK
notes: HC2 = CD3_spFv-1-Fc (knob); IgG1 with L234A/L235A/D265S; also called GUCY2CxCD3 bisp-Ab1; GUCY2C-CD3-bisp-Ab1
Tumor killing EC50 (nM), HT-55 (human GUCY2C [1]): 0.8 nM
Tumor killing EC50 (nM), LS1034 (human GUCY2C [1]): 0.04 nM
